Experimental data as given in patent US5624659, “Method of treating brain tumors expressing tenascin” (Duke University, dated 1997).

Molecular target: tenascin on the tenascin-expressing human glioma cell line U-251 MG-C3 (glutaraldehyde-fixed) (human, UniProt P24821)
Assay: modified Scatchard analysis, 125I-labelled antibody on glutaraldehyde-fixed U-251 MG-C3 cells
Experimental: A modified Scatchard analysis was used to measure the binding affinity of labeled ch81C6. Serially diluted 125I-labeled antibody (200 μl, 1:2 dilution starting from 1600 ng/ml) was incubated in 48-well plates overnight at 37° C. with the antigen-positive human glioma cell line U-251 MG-C3 fixed in glutaraldehyde and the antigen-negative human osteogenic sarcoma cell line 2T. The cells were washed and solubilized with 2N NaOH, and the radioactivity was measured with a gamma counter. The data was analyzed in accordance with known techniques (Y. S. Lee et al., *Cancer Res.* 48, 559 (1988)).
The ch81C6 from high production transfectoma F9C11A5 was purified and further characterized. It was labeled with ^125I using the Iodogen method, and the percentage of immunoreactivity was determined by absorption with D-54 MG xenograft homogenate. The affinity constant was defined by Scatchard analysis using binding assay on a tenascin-expressing cell line U-251 MGC-3 as described above.

Ka: 1.67e+08 M⁻¹
B1: chimeric 81C6 (mouse/human chimeric antibody, human IgG2, from transfectoma F9C11A5) (antibody, V domains shown)
VH: EVQLQQSGPELVKPGASVKMSCKASGYTFTSYVVHWVKQNPGQGLEWIGYINPFNDGTKYNENFKGKATLTSDRSSSTAYMELSSLTSEESAVYFCARDMGREGFAYWGQGTLVTVSA
VL: DIVMTQAAFSNPVTLGTSASISCRSSKSLLHSNGITYLYWYLQKPGQSPQLLIYQMSNLASGVPDRFSSSGSGTDFTLRISRVEAEDVGVYYCAQNLELPRTFGGGTKLEIK
